These are literature values, as cited in publication PMC10580911.

In this data set the target is Tk-subtilisin (Thermococcus kodakarensis) (UniProt P58502).

Take “Tk-subtilisin propeptide propeptide (from UniProt P58502)”: the Kd was 1.4 nM.
